Experimental data as given in patent US20220372155A1 (LYVGEN BIOPHARMA, published 2022).

These binders were tested against T1, human CD40 expressed on CHO cells (human, UniProt P25942 21-277) (assay: FACS, CHO cells).
T1 construct: whole, on cells; also used for the reporter cells over-expressing human CD40; also called cellular CD40; CHO-CD40 cells
T1 sequence (P25942 21-277): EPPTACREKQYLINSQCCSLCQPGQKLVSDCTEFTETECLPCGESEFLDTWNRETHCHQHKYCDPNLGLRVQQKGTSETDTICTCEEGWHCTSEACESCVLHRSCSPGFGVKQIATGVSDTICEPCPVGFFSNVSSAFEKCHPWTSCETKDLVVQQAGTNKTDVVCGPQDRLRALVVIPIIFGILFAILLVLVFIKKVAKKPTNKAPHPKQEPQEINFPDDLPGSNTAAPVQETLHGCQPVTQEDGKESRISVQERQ

Binder | binding result
Ly462 (bispecific antibody, human IgG1, kappa, Ly368 HC-TM740 scFv VL-VH + Ly368 LC) heavy: QVQLKESGPGLVAPSQSLSITCTVSGFSLTDYGVRWIRQPPGKGLEWLGVIWGGGSTYYNSALKSRLSISKDNSKSQVFLKMNSLQTDDTAMYYCAKEKRRGYYYAMDYWGQGTSVTVSSASTKGPSVFPLAPSSKSTSGGTAALGCLVKDYFPEPVTVSWNSGALTSGVHTFPAVLQSSGLYSLSSVVTVPSSSLGTQTYICNVNHKPSNTKVDKKVEPKSCDKTHTCPPCPAPELLGPSVFLFPPKPKDTLMISRTPEVTCVVVDVSHEDPEVKFNWYVDGVEVHNAKTKPREEQYNSTYRVVSVLTVLHQDWLNGKEYKCKVSNKALPAPIEKTISKAKGQPREPQVYTLPPSREEMTKNQVSLTCLVKGFYPSDIAVEWESNGQPENNYKTTPPVLDSDGSFFLYSKLTVDKSRWQQGNVFSCSVMHEALHNHYTQKSLSLSPGGGGGSGGGGSGGGGSGGGGSDIQMTQSPSSLSASVGDRVTITCKASQNIYIYLNWYQQKPGKAPKLLIYNTNNLQTGVPSRFSGSGSGTDFTLTISSLQPEDFATYYCLQHSSRRTFGGGTKVEIKGGGGSGGGGSGGGGSGGGGSQVQLVESGGGLVQPGGSLKLSCATSGFNFNDYFMNWVRQASGKGLEWVGQIRNKNYNYATYYTESLEGRVTISRDDSKNTAYLQMNSLKTEDTAVYYCTSYYYDGFADYFDYWGQGTTVTVSS light: ENVLTQSPAIMSASPGEKVTMTCRASSSVSSSYLHWYQQKSGASPKLWIYSTSNLASGVPARFSGSGSGTSYSLTISSVEAEDAATYYCQQYSGYPLTFGGGTKLEIKRTVAAPSVFIFPPSDEQLKSGTASVVCLLNNFYPREAKVQWKVDNALQSGNSQESVTEQDSKDSTYSLSSTLTLSKADYEKHKVYACEVTHQGLSSPVTKSFNRGEC | binds
Ly463 (bispecific antibody, human IgG1, kappa, Ly368 HC-TM740 scFv VH-VL + Ly368 LC) heavy: QVQLKESGPGLVAPSQSLSITCTVSGFSLTDYGVRWIRQPPGKGLEWLGVIWGGGSTYYNSALKSRLSISKDNSKSQVFLKMNSLQTDDTAMYYCAKEKRRGYYYAMDYWGQGTSVTVSSASTKGPSVFPLAPSSKSTSGGTAALGCLVKDYFPEPVTVSWNSGALTSGVHTFPAVLQSSGLYSLSSVVTVPSSSLGTQTYICNVNHKPSNTKVDKKVEPKSCDKTHTCPPCPAPELLGPSVFLFPPKPKDTLMISRTPEVTCVVVDVSHEDPEVKFNWYVDGVEVHNAKTKPREEQYNSTYRVVSVLTVLHQDWLNGKEYKCKVSNKALPAPIEKTISKAKGQPREPQVYTLPPSREEMTKNQVSLTCLVKGFYPSDIAVEWESNGQPENNYKTTPPVLDSDGSFFLYSKLTVDKSRWQQGNVFSCSVMHEALHNHYTQKSLSLSPGGGGGSGGGGSGGGGSGGGGSQVQLVESGGGLVQPGGSLKLSCATSGFNFNDYFMNWVRQASGKGLEWVGQIRNKNYNYATYYTESLEGRVTISRDDSKNTAYLQMNSLKTEDTAVYYCTSYYYDGFADYFDYWGQGTTVTVSSGGGGSGGGGSGGGGSGGGGSDIQMTQSPSSLSASVGDRVTITCKASQNIYIYLNWYQQKPGKAPKLLIYNTNNLQTGVPSRFSGSGSGTDFTLTISSLQPEDFATYYCLQHSSRRTFGGGTKVEIK light: ENVLTQSPAIMSASPGEKVTMTCRASSSVSSSYLHWYQQKSGASPKLWIYSTSNLASGVPARFSGSGSGTSYSLTISSVEAEDAATYYCQQYSGYPLTFGGGTKLEIKRTVAAPSVFIFPPSDEQLKSGTASVVCLLNNFYPREAKVQWKVDNALQSGNSQESVTEQDSKDSTYSLSSTLTLSKADYEKHKVYACEVTHQGLSSPVTKSFNRGEC | binds
Ly466 (bispecific antibody, human IgG1, kappa, Ly368 HC-TM559 scFv VL-VH + Ly368 LC) heavy: QVQLKESGPGLVAPSQSLSITCTVSGFSLTDYGVRWIRQPPGKGLEWLGVIWGGGSTYYNSALKSRLSISKDNSKSQVFLKMNSLQTDDTAMYYCAKEKRRGYYYAMDYWGQGTSVTVSSASTKGPSVFPLAPSSKSTSGGTAALGCLVKDYFPEPVTVSWNSGALTSGVHTFPAVLQSSGLYSLSSVVTVPSSSLGTQTYICNVNHKPSNTKVDKKVEPKSCDKTHTCPPCPAPELLGPSVFLFPPKPKDTLMISRTPEVTCVVVDVSHEDPEVKFNWYVDGVEVHNAKTKPREEQYNSTYRVVSVLTVLHQDWLNGKEYKCKVSNKALPAPIEKTISKAKGQPREPQVYTLPPSREEMTKNQVSLTCLVKGFYPSDIAVEWESNGQPENNYKTTPPVLDSDGSFFLYSKLTVDKSRWQQGNVFSCSVMHEALHNHYTQKSLSLSPGGGGGSGGGGSGGGGSGGGGSDIQMTQSPSSLSASVGDRVTITCLASEDISNDLAWYQQKPGKAPKLLIYFVDRLLDGVPSRFSGSGSGTDFTLTISSLQPEDFATYYCQQSYKYPPTFGQGTKLEIKGGGGSGGGGSGGGGSGGGGSEVQLVESGGGLVQPGGSLRLSCAASGFTFTNYGLHWVRQAPGKGLEWVSSISPSGGVTYYRDSVKGRFTISRDNSKNTLYLQMNSLRAEDTAVYYCAKPFLGWGGANWIAHWGQGTLVTVSS light: ENVLTQSPAIMSASPGEKVTMTCRASSSVSSSYLHWYQQKSGASPKLWIYSTSNLASGVPARFSGSGSGTSYSLTISSVEAEDAATYYCQQYSGYPLTFGGGTKLEIKRTVAAPSVFIFPPSDEQLKSGTASVVCLLNNFYPREAKVQWKVDNALQSGNSQESVTEQDSKDSTYSLSSTLTLSKADYEKHKVYACEVTHQGLSSPVTKSFNRGEC | binds
Ly424 (bispecific antibody, human IgG1, kappa, Ly312 HC (IgG1 mutated Fc) + Ly312 LC-Ly253 scFv VH-VL) heavy: EVQLVESGGGLVQPGGSLRLSCAASGFNIKDTYMHWVRQAPGKGLEWVARIDPANGNSKYADSVKGRFTISADTSKNTAYLQMNSLRAEDTAVYYCAPFGYYVSDYAMAYWGQGTLVTVSSASTKGPSVFPLAPSSKSTSGGTAALGCLVKDYFPEPVTVSWNSGALTSGVHTFPAVLQSSGLYSLSSVVTVPSSSLGTQTYICNVNHKPSNTKVDKKVEPKSCDKTHTCPPCPAPELLGPSVFLFPPKPKDTLMISRTPEVTCVVVDVSHEDPEVKFNWYVDGVEVHNAKTKPREEQYNSTYRVVSVLTVLHQDWLNGKEYKCKVSNKALPAPIEKTISKAKGQPREPQVYTLPPSREEMTKNQVSLTCLVKGFYPSDIAVEWESNGQPENNYKTTPPVLDSDGSFFLYSKLTVDKSRWQQGNVFSCSVMHEALHNHYTQKSLSLSPGK light: not shown | binds

Next, values leading:

binding result | Binder
binds | Ly464 (bispecific antibody, human IgG1, kappa, Ly368 HC + Ly368 LC-TM740 scFv VL-VH) heavy: QVQLKESGPGLVAPSQSLSITCTVSGFSLTDYGVRWIRQPPGKGLEWLGVIWGGGSTYYNSALKSRLSISKDNSKSQVFLKMNSLQTDDTAMYYCAKEKRRGYYYAMDYWGQGTSVTVSSASTKGPSVFPLAPSSKSTSGGTAALGCLVKDYFPEPVTVSWNSGALTSGVHTFPAVLQSSGLYSLSSVVTVPSSSLGTQTYICNVNHKPSNTKVDKKVEPKSCDKTHTCPPCPAPELLGPSVFLFPPKPKDTLMISRTPEVTCVVVDVSHEDPEVKFNWYVDGVEVHNAKTKPREEQYNSTYRVVSVLTVLHQDWLNGKEYKCKVSNKALPAPIEKTISKAKGQPREPQVYTLPPSREEMTKNQVSLTCLVKGFYPSDIAVEWESNGQPENNYKTTPPVLDSDGSFFLYSKLTVDKSRWQQGNVFSCSVMHEALHNHYTQKSLSLSPG light: ENVLTQSPAIMSASPGEKVTMTCRASSSVSSSYLHWYQQKSGASPKLWIYSTSNLASGVPARFSGSGSGTSYSLTISSVEAEDAATYYCQQYSGYPLTFGGGTKLEIKRTVAAPSVFIFPPSDEQLKSGTASVVCLLNNFYPREAKVQWKVDNALQSGNSQESVTEQDSKDSTYSLSSTLTLSKADYEKHKVYACEVTHQGLSSPVTKSFNRGECGGGGSGGGGSGGGGSGGGGSDIQMTQSPSSLSASVGDRVTITCKASQNIYIYLNWYQQKPGKAPKLLIYNTNNLQTGVPSRFSGSGSGTDFTLTISSLQPEDFATYYCLQHSSRRTFGGGTKVEIKGGGGSGGGGSGGGGSGGGGSQVQLVESGGGLVQPGGSLKLSCATSGFNFNDYFMNWVRQASGKGLEWVGQIRNKNYNYATYYTESLEGRVTISRDDSKNTAYLQMNSLKTEDTAVYYCTSYYYDGFADYFDYWGQGTTVTVSS
binds | Ly465 (bispecific antibody, human IgG1, kappa, Ly368 HC + Ly368 LC-TM740 scFv VH-VL) heavy: QVQLKESGPGLVAPSQSLSITCTVSGFSLTDYGVRWIRQPPGKGLEWLGVIWGGGSTYYNSALKSRLSISKDNSKSQVFLKMNSLQTDDTAMYYCAKEKRRGYYYAMDYWGQGTSVTVSSASTKGPSVFPLAPSSKSTSGGTAALGCLVKDYFPEPVTVSWNSGALTSGVHTFPAVLQSSGLYSLSSVVTVPSSSLGTQTYICNVNHKPSNTKVDKKVEPKSCDKTHTCPPCPAPELLGPSVFLFPPKPKDTLMISRTPEVTCVVVDVSHEDPEVKFNWYVDGVEVHNAKTKPREEQYNSTYRVVSVLTVLHQDWLNGKEYKCKVSNKALPAPIEKTISKAKGQPREPQVYTLPPSREEMTKNQVSLTCLVKGFYPSDIAVEWESNGQPENNYKTTPPVLDSDGSFFLYSKLTVDKSRWQQGNVFSCSVMHEALHNHYTQKSLSLSPG light: ENVLTQSPAIMSASPGEKVTMTCRASSSVSSSYLHWYQQKSGASPKLWIYSTSNLASGVPARFSGSGSGTSYSLTISSVEAEDAATYYCQQYSGYPLTFGGGTKLEIKRTVAAPSVFIFPPSDEQLKSGTASVVCLLNNFYPREAKVQWKVDNALQSGNSQESVTEQDSKDSTYSLSSTLTLSKADYEKHKVYACEVTHQGLSSPVTKSFNRGECGGGGSGGGGSGGGGSGGGGSQVQLVESGGGLVQPGGSLKLSCATSGFNFNDYFMNWVRQASGKGLEWVGQIRNKNYNYATYYTESLEGRVTISRDDSKNTAYLQMNSLKTEDTAVYYCTSYYYDGFADYFDYWGQGTTVTVSSGGGGSGGGGSGGGGSGGGGSDIQMTQSPSSLSASVGDRVTITCKASQNIYIYLNWYQQKPGKAPKLLIYNTNNLQTGVPSRFSGSGSGTDFTLTISSLQPEDFATYYCLQHSSRRTFGGGTKVEIK
binds | Ly423 (bispecific antibody, human IgG1, kappa, Ly312 HC (IgG1 mutated Fc) + Ly312 LC-Ly253 scFv VL-VH) heavy: EVQLVESGGGLVQPGGSLRLSCAASGFNIKDTYMHWVRQAPGKGLEWVARIDPANGNSKYADSVKGRFTISADTSKNTAYLQMNSLRAEDTAVYYCAPFGYYVSDYAMAYWGQGTLVTVSSASTKGPSVFPLAPSSKSTSGGTAALGCLVKDYFPEPVTVSWNSGALTSGVHTFPAVLQSSGLYSLSSVVTVPSSSLGTQTYICNVNHKPSNTKVDKKVEPKSCDKTHTCPPCPAPELLGPSVFLFPPKPKDTLMISRTPEVTCVVVDVSHEDPEVKFNWYVDGVEVHNAKTKPREEQYNSTYRVVSVLTVLHQDWLNGKEYKCKVSNKALPAPIEKTISKAKGQPREPQVYTLPPSREEMTKNQVSLTCLVKGFYPSDIAVEWESNGQPENNYKTTPPVLDSDGSFFLYSKLTVDKSRWQQGNVFSCSVMHEALHNHYTQKSLSLSPGK light: not shown
